# Data reported in patent US20090098142A1.
# B1: antibody with the murine heavy chain of MJ2-7 and a humanized light chain (antibody, part only; not given: humanized light chain, V domains shown, part only)
# VH: EVQLQQSGAELVKPGASVKLSCTGSGFNIKDTYIHWVKQRPEQGLEWIGRIDPANDNIKYDPKFQGKATITADTSSNTAYLQLNSLTSEDTAVYYCARSEENWYDFFDYWGQGTTLTVSS
# Tests used:
# [1] = biological target: native human IL-13 (human) (UniProt P35225); test: cell-based or functional assay
# [2] = biological target: cynomolgus monkey IL-13 (NHP IL-13) (cynomolgus monkey); test: cell-based or functional assay
# Chain of cynomolgus monkey IL-13 (NHP IL-13) (cynomolgus monkey) (Q5I6E4 other isoform, or with tags, fused parts or gaps): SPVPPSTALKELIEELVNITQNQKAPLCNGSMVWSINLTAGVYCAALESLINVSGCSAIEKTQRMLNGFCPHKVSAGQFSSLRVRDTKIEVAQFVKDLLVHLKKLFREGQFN
# Chain of native human IL-13 (human) (P35225 other isoform, or with tags, fused parts or gaps): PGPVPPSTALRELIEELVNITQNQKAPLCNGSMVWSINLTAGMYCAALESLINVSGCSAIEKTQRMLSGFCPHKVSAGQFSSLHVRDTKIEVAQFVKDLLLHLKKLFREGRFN
binder,measurement,setting,value
B1,"STAT6 phosphorylation assay, native human IL-13 at 1 ng/ml, IC50",[1],0.554 nM
same,"CD23 expression assay, non-human primate IL-13 at 1 ng/ml, IC50",[2],0.308 nM
